Experimental data as given in the Human Domainome abundance scans (Beltran et al. 2025).
± gives the uncertainty stated by the source.

B1: V(D)J recombination-activating protein 2, residues 415 to 491; numbered along this chain, P55895 (parent)
chain: YWITCCPTCDVDINTWVPFYSTELNKPAMIYCSHGDGHWVHAQCMDLAERTLIHLSAGSNKYYCNEHVEIARALHTP

Variants of: B1
Experiment: abundance fitness (aPCA) (normalised: wild type 0, dead -1); higher = more abundant; growth selection in yeast, the domain comes from the species named
Conditions: Homo sapiens

Variant	abundance fitness
D46R	0.041 ± 0.031
D46F	-0.221 ± 0.11
D46N	0.029 ± 0.11
D46L	0.031 ± 0.045
D46P	-0.268 ± 0.087
E66Q	-0.057 ± 0.12
E66L	0.01 ± 0.066
E66K	-0.099 ± 0.092
E66V	-0.105 ± 0.06
E66W	-0.192 ± 0.078
E66R	-0.127 ± 0.058
E66P	-0.231 ± 0.08
H75D	0.094 ± 0.12
H75I	-0.003 ± 0.14
H75E	0.029 ± 0.12
H75A	0.002 ± 0.08
H75R	-0.001 ± 0.058
H75T	0.089 ± 0.068
E49S	-0.243 ± 0.069
E49R	-0.368 ± 0.055
E49D	-0.038 ± 0.083
E49P	0.023 ± 0.075
E49F	-0.149 ± 0.093
E49Q	-0.019 ± 0.093

Variant	abundance fitness
R50L	0.013 ± 0.051
R50C	0.106 ± 0.11
R50P	0.1 ± 0.068
R50Y	-0.122 ± 0.099
K26P	-0.786 ± 0.36
K26A	-0.275 ± 0.3
K26F	-0.116 ± 0.22
K26V	-0.084 ± 0.23
C64F	-0.851 ± 0.37
C64E	-1.05 ± 0.25
C64W	-0.901 ± 0.11
D12S	-0.229 ± 0.22
D12M	0.009 ± 0.14
D12P	-0.392 ± 0.21
D12E	0.083 ± 0.42
D12V	-0.304 ± 0.3
L55C	0.04 ± 0.099
L55H	0.085 ± 0.18
L55F	-0.06 ± 0.12
L55A	-0.108 ± 0.07
L55G	-0.18 ± 0.047
L55N	-0.062 ± 0.15
L55E	-0.051 ± 0.093
L55T	-0.174 ± 0.069

Variant	abundance fitness
L55K	-0.019 ± 0.087
L55S	-0.011 ± 0.049
T51S	-0.039 ± 0.073
T51N	-0.191 ± 0.19
T51M	-0.133 ± 0.088
T51R	0.034 ± 0.054
S59H	-0.043 ± 0.21
S59I	0.103 ± 0.16
S59C	-0.005 ± 0.1
S59K	0.053 ± 0.11
S59T	0.02 ± 0.093
S59Q	-0.224 ± 0.077
S59A	0.078 ± 0.073
S59P	0.062 ± 0.091
S59F	-0.088 ± 0.097
S59L	-0.087 ± 0.085
S59M	-0.042 ± 0.09
Y20G	-0.28 ± 0.15
Y20D	-0.525 ± 0.26
Y20N	-0.09 ± 0.25
P27R	-0.973 ± 0.2
P27F	-0.515 ± 0.46
P27H	-0.741 ± 0.5
H41R	-0.755 ± 0.25

Variant	abundance fitness
H41D	-0.785 ± 0.48
W39R	-0.185 ± 0.029
W39N	-0.274 ± 0.1
W39G	-0.54 ± 0.034
W39K	-0.23 ± 0.07
W39V	-0.193 ± 0.034
W39Y	0.014 ± 0.079
W39T	-0.197 ± 0.049
G35K	0.042 ± 0.28
G35V	-0.175 ± 0.36
G35S	-0.136 ± 0.11
G35R	-0.374 ± 0.25
G35Q	-0.17 ± 0.12
G35A	-0.164 ± 0.22
E23D	0.122 ± 0.17
E23F	-0.901 ± 0.34
E23S	-0.805 ± 0.23
R72N	0.059 ± 0.21
R72P	0.01 ± 0.1
R72I	-0.121 ± 0.19
V17N	-0.687 ± 0.44
V17M	-0.105 ± 0.25
C5A	-0.616 ± 0.41
S33K	-0.132 ± 0.067

Variant	abundance fitness
S33M	-0.106 ± 0.057
S33C	-0.057 ± 0.098
S33V	-0.157 ± 0.043
S33E	0.036 ± 0.061
S33L	-0.095 ± 0.039
S33A	0.069 ± 0.041
I53H	-0.069 ± 0.18
I53E	-0.194 ± 0.13
I53L	-0.02 ± 0.076
I53T	0.004 ± 0.11
I53G	0.007 ± 0.064
V11R	-0.75 ± 0.37
V11F	-0.386 ± 0.22
V11A	-0.741 ± 0.35
Q43G	-0.203 ± 0.14
Q43T	0.107 ± 0.36
Q43S	-0.174 ± 0.21
Q43A	-0.397 ± 0.5
T15F	0.052 ± 0.36
T15A	-0.341 ± 0.21
T15R	-0.474 ± 0.5
T4D	-0.022 ± 0.12
T4Y	-0.141 ± 0.12
V68C	-0.019 ± 0.14

Variant	abundance fitness
V68M	-0.087 ± 0.2
V68P	-0.125 ± 0.25
P77C	-0.243 ± 0.34
G37P	0.076 ± 0.23
L52C	-0.145 ± 0.089
L52R	-0.358 ± 0.073
L52F	-0.211 ± 0.11
L52N	-0.304 ± 0.28
L52A	-0.144 ± 0.082
L52E	-0.258 ± 0.095
H34G	-0.007 ± 0.056
H34Y	-0.101 ± 0.12
H34A	-0.035 ± 0.069
H34C	-0.309 ± 0.19
H34V	-0.132 ± 0.05
H34P	-0.808 ± 0.15
H34D	-0.095 ± 0.13
T8G	-0.277 ± 0.14
T8A	-0.437 ± 0.17
T8W	-0.627 ± 0.41
I70F	-0.002 ± 0.091
I70H	-0.205 ± 0.23
I70K	-0.139 ± 0.12
I70C	0.176 ± 0.13

Variant	abundance fitness
I70Q	-0.036 ± 0.089
I70E	-0.093 ± 0.097
I70G	-0.045 ± 0.053
Y1A	-0.188 ± 0.079
Y1L	-0.098 ± 0.087
Y1S	-0.084 ± 0.053
Y1N	-0.252 ± 0.17
Y1R	-0.469 ± 0.24
Y31N	-0.322 ± 0.14
Y31V	-0.241 ± 0.063
Y31P	-0.245 ± 0.093
Y31F	-0.061 ± 0.073
Y31G	-0.337 ± 0.069
Y31K	0.041 ± 0.065
A73E	-0.009 ± 0.1
A73G	0.096 ± 0.071
A73I	-0.042 ± 0.098
A73M	-0.121 ± 0.1
K61C	-0.098 ± 0.18
K61G	0.06 ± 0.12
L74Q	-0.062 ± 0.25
H67V	-0.387 ± 0.048
H67S	-0.196 ± 0.054
H67C	-0.031 ± 0.074

Variant	abundance fitness
H67M	-0.579 ± 0.053
H67K	-0.388 ± 0.081
H67Q	-0.348 ± 0.058
A42S	-0.177 ± 0.077
A42C	-0.118 ± 0.077
A42Y	-0.626 ± 0.4
A42W	-0.643 ± 0.067
A57C	-0.124 ± 0.11
A57P	-0.029 ± 0.095
A57S	0.048 ± 0.055
A57I	0.216 ± 0.29
A57G	-0.068 ± 0.076
A57H	0.091 ± 0.17
I30G	-0.644 ± 0.18
A71S	-0.04 ± 0.06
A71D	-0.038 ± 0.088
A71L	0.027 ± 0.037
W16I	-0.12 ± 0.26
W16R	-0.35 ± 0.16
E69T	0.007 ± 0.13
E69W	0.071 ± 0.23
E69P	0.358 ± 0.38
E69K	-0.183 ± 0.29
E69A	-0.092 ± 0.33

Variant	abundance fitness
M45L	-0.291 ± 0.066
M45P	-1.26 ± 0.38
M45F	-0.231 ± 0.091
M45Q	0.032 ± 0.057
M45N	-0.016 ± 0.18
M45K	-0.202 ± 0.1
V40K	-0.316 ± 0.13
V40R	-0.65 ± 0.1
V40N	-0.633 ± 0.33
V40I	-0.081 ± 0.35
V40F	-0.852 ± 0.3
V40M	-0.092 ± 0.11
V40Y	-0.85 ± 0.32
F19Y	0.08 ± 0.42
F19S	-0.154 ± 0.29
F19M	-0.029 ± 0.16
F19G	-0.142 ± 0.19
N60F	-0.273 ± 0.16
N60D	0.01 ± 0.13
N60T	-0.022 ± 0.063
N60E	0.046 ± 0.083
N60K	-0.114 ± 0.12
N60A	0.002 ± 0.069
M29E	-0.421 ± 0.24

Variant	abundance fitness
M29A	-0.575 ± 0.33
M29S	0.208 ± 0.28
S56I	-0.113 ± 0.13
S56L	-0.046 ± 0.064
S56K	0.029 ± 0.1
S56C	-0.099 ± 0.11
C44D	-0.765 ± 0.17
C44S	-0.998 ± 0.12
C44E	-1.08 ± 0.23
C44I	-0.972 ± 0.18
L47H	-0.243 ± 0.094
L47E	-0.307 ± 0.081
L47N	-0.364 ± 0.11
L47V	0.034 ± 0.039
L47M	0.05 ± 0.057
L47D	-0.571 ± 0.13
L47F	-0.133 ± 0.1
D36R	-0.246 ± 0.094
D36G	-0.04 ± 0.17
D36C	-0.092 ± 0.26
D36A	-0.177 ± 0.1
I3A	-0.057 ± 0.042
I3H	-0.265 ± 0.078
I3Q	-0.186 ± 0.075

Variant	abundance fitness
I3E	-0.082 ± 0.074
I3G	-0.021 ± 0.033
I3L	-0.112 ± 0.042
Y62F	-0.003 ± 0.12
Y62V	-0.342 ± 0.09
Y62R	-0.561 ± 0.083
Y62K	-0.6 ± 0.21
Y62W	0.067 ± 0.087
Y62T	-0.152 ± 0.13
S21P	-0.004 ± 0.12
S21Y	-0.027 ± 0.21
S21G	-0.108 ± 0.091
A28F	-0.183 ± 0.2
A28K	-0.112 ± 0.3
A28L	-0.094 ± 0.095
A28P	-0.334 ± 0.21
A28C	-0.117 ± 0.2
H38A	-0.986 ± 0.48
H38Y	-0.543 ± 0.46
T76Q	-0.009 ± 0.097
T76G	-0.057 ± 0.056
T76K	0.081 ± 0.094
T76I	-0.155 ± 0.14
T76C	-0.416 ± 0.18

Variant	abundance fitness
T76F	-0.373 ± 0.17
P7K	0.084 ± 0.31
P7E	0.09 ± 0.22
A48S	-0.066 ± 0.067
A48N	-0.339 ± 0.27
A48P	0.037 ± 0.067
A48V	-0.009 ± 0.054
A48F	-0.161 ± 0.084
A48Y	-0.092 ± 0.13
A48D	-0.044 ± 0.09
A48L	0.001 ± 0.062
I13L	-0.098 ± 0.14
I13S	-0.264 ± 0.3
I13C	-0.059 ± 0.23
I13M	-0.284 ± 0.34
I13G	-0.193 ± 0.14
I13R	0.114 ± 0.14
I13V	-0.35 ± 0.14
Y63C	0.188 ± 0.11
Y63F	-0.002 ± 0.13
Y63D	-0.207 ± 0.096
Y63K	-0.005 ± 0.096
Y63M	-0.171 ± 0.096
H54A	0.004 ± 0.066

Variant	abundance fitness
H54E	0.02 ± 0.081
H54G	0.035 ± 0.054
H54N	-0.061 ± 0.1
H54K	0.112 ± 0.13
H54S	-0.002 ± 0.091
H54W	-0.064 ± 0.087
H54C	0.001 ± 0.15
G58H	0.013 ± 0.16
G58C	-0.061 ± 0.13
G58Y	-0.126 ± 0.11
G58M	-0.11 ± 0.2
G58P	-0.013 ± 0.11
G58W	-0.06 ± 0.092
G58Q	0.025 ± 0.092
G58A	-0.049 ± 0.074
C9Q	-0.175 ± 0.3
W2Y	0.055 ± 0.1
W2P	-0.299 ± 0.14
W2Q	-0.382 ± 0.14
C32V	-0.746 ± 0.088
C32K	-1.09 ± 0.46
C32R	-0.967 ± 0.14
C32G	-1.17 ± 0.17
C32N	-0.85 ± 0.35

Variant	abundance fitness
T22W	-0.121 ± 0.13
T22D	-0.121 ± 0.39
T22G	-0.353 ± 0.17
L24I	-0.156 ± 0.25
L24T	-0.081 ± 0.22
L24P	-0.56 ± 0.39
N65E	0.058 ± 0.082
N65L	0.008 ± 0.054
N65P	0.016 ± 0.11
N65T	-0.005 ± 0.074
N65G	0.012 ± 0.047
P18H	-0.175 ± 0.3
P18S	-0.344 ± 0.17
N14D	0.385 ± 0.33
N14V	-0.149 ± 0.23
D10S	-0.114 ± 0.21
D10K	-0.089 ± 0.18
D10L	0.102 ± 0.2
D10A	0.065 ± 0.14
N25H	0.113 ± 0.31
N25Q	0.132 ± 0.24
N25S	-0.042 ± 0.12
